According to patent US20260085129A1 (ECO ANIMAL HEALTH, published 2026):

T1: porcine CD163, membrane-bound form on porcine pulmonary alveolar macrophage (pPAM) WT cells (porcine, UniProt Q2VL90 47-1115)
T1 construct: Native CD163 on primary cells; also called membrane CD163; cell-surface CD163
T1 sequence: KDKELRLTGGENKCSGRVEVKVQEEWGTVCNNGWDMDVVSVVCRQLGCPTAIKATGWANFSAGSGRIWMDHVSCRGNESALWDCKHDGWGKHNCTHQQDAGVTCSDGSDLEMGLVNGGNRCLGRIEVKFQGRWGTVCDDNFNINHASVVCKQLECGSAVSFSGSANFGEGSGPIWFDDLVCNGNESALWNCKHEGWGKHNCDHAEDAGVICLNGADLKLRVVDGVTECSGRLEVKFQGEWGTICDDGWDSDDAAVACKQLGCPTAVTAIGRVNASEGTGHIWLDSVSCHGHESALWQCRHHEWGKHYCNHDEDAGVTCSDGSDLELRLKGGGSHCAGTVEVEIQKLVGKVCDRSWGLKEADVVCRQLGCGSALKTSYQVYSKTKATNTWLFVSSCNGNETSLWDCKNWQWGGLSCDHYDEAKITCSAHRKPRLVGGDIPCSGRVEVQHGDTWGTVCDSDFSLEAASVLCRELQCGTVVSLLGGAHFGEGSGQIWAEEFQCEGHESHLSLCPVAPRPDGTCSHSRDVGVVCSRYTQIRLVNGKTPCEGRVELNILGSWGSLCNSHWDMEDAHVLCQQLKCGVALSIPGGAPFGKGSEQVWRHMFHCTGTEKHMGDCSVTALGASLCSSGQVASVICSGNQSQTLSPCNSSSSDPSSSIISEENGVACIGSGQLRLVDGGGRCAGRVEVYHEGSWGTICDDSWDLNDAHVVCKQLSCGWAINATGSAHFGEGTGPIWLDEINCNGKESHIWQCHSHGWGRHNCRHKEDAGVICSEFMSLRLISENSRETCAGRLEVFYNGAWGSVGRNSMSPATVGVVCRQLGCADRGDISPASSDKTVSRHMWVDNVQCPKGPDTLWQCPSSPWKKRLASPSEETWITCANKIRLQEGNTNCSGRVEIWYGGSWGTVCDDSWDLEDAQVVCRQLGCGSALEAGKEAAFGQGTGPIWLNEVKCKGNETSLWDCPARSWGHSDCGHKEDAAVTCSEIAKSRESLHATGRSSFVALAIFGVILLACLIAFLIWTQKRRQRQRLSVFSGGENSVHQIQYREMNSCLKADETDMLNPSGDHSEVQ

B1: 03E11 + 17B11 + 03D03 2(G4S) triparatopic VHH construct (bispecific antibody)
chain: QVQLQESGGGLVQVGSSLRLSCVTSGRTPSRYVMGWFRQAPGQEREFVAAISWSGRAPYADSVKGRFTISRDNAKNTVYLQMNSLKPEDTGVYYCAGGEGAIKWTTLDAYDYWGQGTQVTVSSGGGGSGGGGSQVQLVESGGGLVQAGGSLRLSCAASGRTFSSYAMGWFRQTPGKDREFVARIGWTGGTTIYADSVKGRFTISRDNAKNTVYLQMNSLKPEDTAVYYCAADQAGWRTAGVRNTYEYDYWGQGTQVTVSSGGGGSGGGGSQLQLVESGGGLVQPGGSLRLSCAASGFTLDDYTIGWFRQAPGKEREGVSCINSITSNTYYADSVKGRFTISRDNAKNTVYLQMNSLTAEDTAIYYCAADSGLFSGSSCLKYRAMRFGSWGQGTQVTVSS
notes: Triparatopic; not shown: FLAG and His tags
B2: 17B11 + 03D03 5(G4S) biparatopic VHH construct (bispecific antibody)
chain: QVQLVESGGGLVQAGGSLRLSCAASGRTFSSYAMGWFRQTPGKDREFVARIGWTGGTTIYADSVKGRFTISRDNAKNTVYLQMNSLKPEDTAVYYCAADQAGWRTAGVRNTYEYDYWGQGTQVTVSSGGGGSGGGGSGGGGSGGGGSGGGGSQLQLVESGGGLVQPGGSLRLSCAASGFTLDDYTIGWFRQAPGKEREGVSCINSITSNTYYADSVKGRFTISRDNAKNTVYLQMNSLTAEDTAIYYCAADSGLFSGSSCLKYRAMRFGSWGQGTQVTVSS
notes: Biparatopic; not shown: FLAG and His tags
B3: 03E11 + 17B11 5(G4S) biparatopic VHH construct (bispecific antibody)
chain: QVQLQESGGGLVQVGSSLRLSCVTSGRTPSRYVMGWFRQAPGQEREFVAAISWSGRAPYADSVKGRFTISRDNAKNTVYLQMNSLKPEDTGVYYCAGGEGAIKWTTLDAYDYWGQGTQVTVSSGGGGSGGGGSGGGGSGGGGSGGGGSQVQLVESGGGLVQAGGSLRLSCAASGRTFSSYAMGWFRQTPGKDREFVARIGWTGGTTIYADSVKGRFTISRDNAKNTVYLQMNSLKPEDTAVYYCAADQAGWRTAGVRNTYEYDYWGQGTQVTVSS
notes: as for B2
B4: 03E11 + 03D03 2(G4S) biparatopic VHH construct (bispecific antibody)
chain: QVQLQESGGGLVQVGSSLRLSCVTSGRTPSRYVMGWFRQAPGQEREFVAAISWSGRAPYADSVKGRFTISRDNAKNTVYLQMNSLKPEDTGVYYCAGGEGAIKWTTLDAYDYWGQGTQVTVSSGGGGSGGGGSQLQLVESGGGLVQPGGSLRLSCAASGFTLDDYTIGWFRQAPGKEREGVSCINSITSNTYYADSVKGRFTISRDNAKNTVYLQMNSLTAEDTAIYYCAADSGLFSGSSCLKYRAMRFGSWGQGTQVTVSS
notes: Biparatopic: two anti-porcine CD163 VHHs in one chain; also called 19-17; 03D03+03E11; not shown: FLAG and His tags
B5: 03E11 + 03D03 5(G4S) biparatopic VHH construct (bispecific antibody)
chain: QVQLQESGGGLVQVGSSLRLSCVTSGRTPSRYVMGWFRQAPGQEREFVAAISWSGRAPYADSVKGRFTISRDNAKNTVYLQMNSLKPEDTGVYYCAGGEGAIKWTTLDAYDYWGQGTQVTVSSGGGGSGGGGSGGGGSGGGGSGGGGSQLQLVESGGGLVQPGGSLRLSCAASGFTLDDYTIGWFRQAPGKEREGVSCINSITSNTYYADSVKGRFTISRDNAKNTVYLQMNSLTAEDTAIYYCAADSGLFSGSSCLKYRAMRFGSWGQGTQVTVSS
notes: as for B2
B6: 17B11 + 03D03 2(G4S) biparatopic VHH construct (bispecific antibody)
chain: QVQLVESGGGLVQAGGSLRLSCAASGRTFSSYAMGWFRQTPGKDREFVARIGWTGGTTIYADSVKGRFTISRDNAKNTVYLQMNSLKPEDTAVYYCAADQAGWRTAGVRNTYEYDYWGQGTQVTVSSGGGGSGGGGSQLQLVESGGGLVQPGGSLRLSCAASGFTLDDYTIGWFRQAPGKEREGVSCINSITSNTYYADSVKGRFTISRDNAKNTVYLQMNSLTAEDTAIYYCAADSGLFSGSSCLKYRAMRFGSWGQGTQVTVSS
notes: as for B2
B7: 03E11 + 17B11 2(G4S) biparatopic VHH construct (bispecific antibody)
chain: QVQLQESGGGLVQVGSSLRLSCVTSGRTPSRYVMGWFRQAPGQEREFVAAISWSGRAPYADSVKGRFTISRDNAKNTVYLQMNSLKPEDTGVYYCAGGEGAIKWTTLDAYDYWGQGTQVTVSSGGGGSGGGGSQVQLVESGGGLVQAGGSLRLSCAASGRTFSSYAMGWFRQTPGKDREFVARIGWTGGTTIYADSVKGRFTISRDNAKNTVYLQMNSLKPEDTAVYYCAADQAGWRTAGVRNTYEYDYWGQGTQVTVSS
notes: as for B2

These binders were tested against T1, porcine CD163, membrane-bound form on … (assay: dose-response FACS on pPAM WT cells, anti-FLAG-biotin and streptavidin R-PE detection).
Procedure: Biparatopic and triparatopic antibody constructs in PBS (pH7.4) were diluted in a 3-fold serial dilutions from 150 nM down to 0.023 nM in FACS buffer (0.5% FBS, 0.5 mM EDTA in 1×PBS pH7.4). Biparatopic and triparatopic candidates were incubated with anti-FLAG-Biotin (Sigma, Cat. nr. F9291), for 30 min on ice with shaking. This mixture was added to pPAM WT cells and incubated for 60 min on ice with gentle shaking. Cells were washed 3×with 150 μl/well of FACS buffer and incubated with 50 μl/well of the secondary detection reagent Streptavidin R-P.E. conjugate antibody (Invitrogen, Cat. nr. SA10044) for 30 min on ice with shaking and protected from light. Cells were then washed 3× with 150 μl/well of FACS Buffer and resuspended in 50 μl/well of FACS buffer to be measured on a FACS machine (Attune™ N×T), and a total of 10000 cells were acquired per sample.
For B1, the EC50 was 18.2 nM.
For B2, the EC50 was 6.6 nM.
For B3, the EC50 was 8.4 nM.
Work on B4 yielded an EC50 of 8.4 nM.
In the case of B5, the EC50 is reported as 6.5 nM.
Binder B6 has an EC50 of 6.6 nM.
B7 was tested, and the EC50 was 6.8 nM.
